Measurements reported in PMC11853100, “Structural analysis of extracellular ATP-independent chaperones of streptococcal species and protein substrate interactions” (mSphere, 2025).

B1: Streptococcus pneumoniae pneumolysin, recombinant (natural protein)
chain: ANKAVNDFILAMNYDKKKLLTHQGESIENRFIKEGNQLPDEFVVIERKKRSLSTNTSDISVTATNDSRLYPGALLVVDETLLENNPTLLAVDRAPMTYSIDLPGLASSDSFLQVEDPSNSSVRGAVNDLLAKWHQDYGQVNNVPARMQYEKITAHSMEQLKVKFGSDFEKTGNSLDIDFNSVHSGEKQIQIVNFKQIYYTVSVDAVKNPGDVFQDTVTVEDLKQRGISAERPLVYISSVAYGRQVYLKLETTSKSDEVEAAFEALIKGVKVAPQTEWKQILDNTEVKAVILGGDPSSGARVVTGKVDMVEDLIQEGSRFTADHPGLPISYTTSFLRDNVVATFQNSTDYVETKVTAYRNGDLLLDHSGAYVAQYYITWDELSYDHQGKEVLTPKAWDRNGQDLTAHFTTSIPLKGNVRNLSVKIRECTGLAWEWWRTVYEKTDLPLVRKRTISIWGTTLYPQVEDKVEND
notes: pneumolysin of S. pneumoniae strain R6, residues 2-471 of WP_001284359.1; pQE30 vector; In the folding assays it was denatured in 8 M urea and then diluted; also called Ply; Ply toxin

Assays:
[1] = target: T1, Streptococcus pneumoniae SlrA (Streptococcus pneumoniae strain R6, UniProt Q8DQG5 19-267); test: MST; chaperone labelled with red NHS dye kept at 20 nM, unlabelled protein in serial dilution; pH 6.5, 0.05% Tween 20, 25 C; 1:1 model in PALMIST, 95% CI; conditions: both partners purified
T1 construct: also called SpnSlrA; hexa-his-tagged SpnSlrA; source: E. coli BL21 (DE3), expressed and purified similarly to Ply (Ni-NTA, dialysis); not shown: His6, N-terminal, kept

[2] = target: T1, Streptococcus pneumoniae SlrA; test: ITC; chaperone in the syringe, Ply in the sample cell; 20 mM MES, 100 mM NaCl, 1 mM beta-mercaptoethanol, 10% glycerol, pH 6.5, 25 C; independent binding model; conditions: both partners purified
[3] = target: B1; test: MST; chaperone labelled with red NHS dye kept at 20 nM, unlabelled protein in serial dilution; pH 6.5, 0.05% Tween 20, 25 C; 1:1 model in PALMIST, 95% CI; conditions: both partners purified
[4] = target: T2, bovine serum albumin (bovine, UniProt P02769 25-607); test: as above; conditions: both partners purified
T2 construct: also called BSA

[5] = target: B1; test: ITC; chaperone in the syringe, Ply in the sample cell; 20 mM MES, 100 mM NaCl, 1 mM beta-mercaptoethanol, 10% glycerol, pH 6.5, 25 C; independent binding model; conditions: both partners purified
[6] = target: the molecule itself; test: crystal structure; X-ray structures of SpnPrsA (2.55 A) and SmuPrsA (3.15 A); dimers in the crystal

T2 sequence (P02769 25-607): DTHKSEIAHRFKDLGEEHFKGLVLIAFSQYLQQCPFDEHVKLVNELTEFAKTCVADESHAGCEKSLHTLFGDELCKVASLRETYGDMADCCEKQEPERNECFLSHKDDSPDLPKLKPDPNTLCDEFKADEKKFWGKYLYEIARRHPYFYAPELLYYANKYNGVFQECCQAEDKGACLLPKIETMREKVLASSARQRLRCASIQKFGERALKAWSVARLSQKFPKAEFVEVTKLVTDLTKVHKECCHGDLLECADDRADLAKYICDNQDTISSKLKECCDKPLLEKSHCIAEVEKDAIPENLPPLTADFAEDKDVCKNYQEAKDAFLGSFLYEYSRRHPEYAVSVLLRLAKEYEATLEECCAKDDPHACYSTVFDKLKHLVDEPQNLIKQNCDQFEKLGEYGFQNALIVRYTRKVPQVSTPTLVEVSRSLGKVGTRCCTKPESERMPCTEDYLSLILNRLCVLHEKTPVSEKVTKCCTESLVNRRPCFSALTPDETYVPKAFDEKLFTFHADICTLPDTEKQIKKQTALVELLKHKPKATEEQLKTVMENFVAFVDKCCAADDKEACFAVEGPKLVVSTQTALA

| Binder | Kd [1] [nM] | Ka [2] [M⁻¹] | Kd [2] [nM] | Kd [3] [nM] | Kd [4] [nM] | Ka [5] [M⁻¹] | Kd [5] [nM] | dH [5] [kcal/mol] | stoichiometry N [5] | binding result [6] |
| --- | --- | --- | --- | --- | --- | --- | --- | --- | --- | --- |
| B1 | 60 | 1.23e+07 | 81.2 ± 18 | – | – | – | – | – | – | – |
| Streptococcus pneumoniae PrsA (enzyme, also called SpnPrsA; hexa-his-tagged SpnPrsA; not shown: His6, N-terminal, kept) GADLISMKGDVITEHQFYEQVKNNPSAQQVLLNMTIQKVFEKQYGSELDDKEVDDTIAEEKKQYGENYQRVLSQAGMTLETRKAQIRTSKLVELAVKKVAEAELTDEAYKKAFDEYTPDVTAQIIRLNNEDKAKEVLEKAKAEGADFAQLAKDNSTDEKTKENGGEITFDSASTEVPEQVKKAAFALDVDGVSDVITATGTQAYSSQYYIVKLTKKTEKSSNIDDYKEKLKTVILTQKQNDSTFVQSIIGKELQAANIKVKDQAFQNIFTQYIGGGDSSSSSSTSNE | – | – | – | 70 | 62000 ± 58000 | 8.38e+06 | 119 ± 25.9 | -100 ± 3.74 | 1.85 | binds |
| Streptococcus mutans PrsA (enzyme, also called SmuPrsA) ACSKTNQNSKIATMKGDTITVADFYNEVKNSTASKQAVLSLLVSKVFEKQYGDKVSDKEVTKAYNEAAKYYGDSFSSALASRGYTKEDYKKQIRSEKLIEYAVKEEAKKEITDASYKSAYKDYKPEVTAQVIQLDSEDKAKSVLEEAKADGADFAKIAKDNTKGDKTEYSFDSGSTNLPSQVLSAALNLDKDGVSDVIKASDSTTYKPVYYIVKITKKTDKNADWKAYKKRLKEIIVSQKLNDSNFRNAVIGKAFKKANVKIKDKAFSEILSQY | – | – | – | – | – | – | – | – | – | binds |
